The supplement of paper PMC9112550, “Optimization of the antimicrobial peptide Bac7 by deep mutational scanning” (BMC Biology, 2022)
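Also: peptides expressed intracellularly from a pBAD plasmid library in pooled LB shake-flask culture, induced with 0.3% L-arabinose, DNA abundance read by NGS, three biological replicates, DESeq2 with apeglm shrinkage.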

These sequences were tested on Escherichia coli TOP10 (assay: shrunken log2 fold change of peptide-encoding DNA abundance (4.5 h post-induction vs induction); higher = less antimicrobial activity (less host growth inhibition)). Settings: time post-induction: 4.5 h; library: site-saturation at positions 5, 18, 19, 20.
In the case of RRIRVRPPRLPRPRPRPGLQPRP, the “shrunken log2 fold change” value is reported as 0.478. In the case of RRIRSRPPRLPRPRPRPMVNPRP, the “shrunken log2 fold change” value is reported as 0.00321. In the case of RRIRTRPPRLPRPRPRPDCDPRP, the “shrunken log2 fold change” value is reported as 0.209. RRIRPRPPRLPRPRPRPFSRPRP was tested, and the “shrunken log2 fold change” value was -0.099. For RRIRLRPPRLPRPRPRPRDEPRP, the “shrunken log2 fold change” value was 0.162. For RRIRGRPPRLPRPRPRPCRNPRP, the “shrunken log2 fold change” value was 0.0316. With RRIRPRPPRLPRPRPRPGFQPRP the “shrunken log2 fold change” value was 0.215. For RRIRHRPPRLPRPRPRPCFRPRP, the “shrunken log2 fold change” value was -0.346. RRIRCRPPRLPRPRPRPGVAPRP was tested, and the “shrunken log2 fold change” value was 0.632. With RRIRMRPPRLPRPRPRPPYTPRP the “shrunken log2 fold change” value was -0.0678. With RRIRVRPPRLPRPRPRPRINPRP the “shrunken log2 fold change” value was -0.07. With RRIRFRPPRLPRPRPRPQPTPRP the “shrunken log2 fold change” value was 0.597. For RRIRGRPPRLPRPRPRPWLCPRP, the “shrunken log2 fold change” value was 0.266. RRIRHRPPRLPRPRPRPEFKPRP was tested, and the “shrunken log2 fold change” value was 0.0348. For RRIRVRPPRLPRPRPRPDAEPRP, the “shrunken log2 fold change” value was 0.431. With RRIRWRPPRLPRPRPRPWYSPRP the “shrunken log2 fold change” value was -0.534. RRIRVRPPRLPRPRPRPTSRPRP was tested, and the “shrunken log2 fold change” value was -0.139. RRIRQRPPRLPRPRPRPARIPRP was tested, and the “shrunken log2 fold change” value was -0.0224. With RRIRLRPPRLPRPRPRPIEFPRP the “shrunken log2 fold change” value was -0.449. In the case of RRIRERPPRLPRPRPRPPWCPRP, the “shrunken log2 fold change” value is reported as 0.217. For RRIRNRPPRLPRPRPRPFETPRP, the “shrunken log2 fold change” value was 0.0215. For RRIRLRPPRLPRPRPRPQHTPRP, the “shrunken log2 fold change” value was -0.418. In the case of RRIRNRPPRLPRPRPRPIYEPRP, the “shrunken log2 fold change” value is reported as -0.232. For RRIRPRPPRLPRPRPRPSGWPRP, the “shrunken log2 fold change” value was 0.57. With RRIRPRPPRLPRPRPRPPKDPRP the “shrunken log2 fold change” value was 0.225. In the case of RRIRNRPPRLPRPRPRPSQEPRP, the “shrunken log2 fold change” value is reported as 0.299. RRIRKRPPRLPRPRPRPVWIPRP was tested, and the “shrunken log2 fold change” value was 0.0328. For RRIRTRPPRLPRPRPRPKLWPRP, the “shrunken log2 fold change” value was 0.401. In the case of RRIRGRPPRLPRPRPRPYWGPRP, the “shrunken log2 fold change” value is reported as 0.198. For RRIRDRPPRLPRPRPRPNMTPRP, the “shrunken log2 fold change” value was 0.0572. In the case of RRIRQRPPRLPRPRPRPCSDPRP, the “shrunken log2 fold change” value is reported as -0.136. For RRIRMRPPRLPRPRPRPMGRPRP, the “shrunken log2 fold change” value was -0.0209. For RRIRHRPPRLPRPRPRPTQCPRP, the “shrunken log2 fold change” value was -0.0253. With RRIRERPPRLPRPRPRPAWTPRP the “shrunken log2 fold change” value was 0.0563. With RRIRQRPPRLPRPRPRPWKAPRP the “shrunken log2 fold change” value was -0.112. In the case of RRIRLRPPRLPRPRPRPGFRPRP, the “shrunken log2 fold change” value is reported as 0.0673. With RRIRGRPPRLPRPRPRPRLHPRP the “shrunken log2 fold change” value was 0.653. With RRIRARPPRLPRPRPRPYSRPRP the “shrunken log2 fold change” value was -0.0171. For RRIRERPPRLPRPRPRPADTPRP, the “shrunken log2 fold change” value was -0.262. With RRIRDRPPRLPRPRPRPMVQPRP the “shrunken log2 fold change” value was -0.00146. In the case of RRIRYRPPRLPRPRPRPQWAPRP, the “shrunken log2 fold change” value is reported as -0.00681. For RRIRPRPPRLPRPRPRPMGKPRP, the “shrunken log2 fold change” value was -0.0536. For RRIRFRPPRLPRPRPRPKIQPRP, the “shrunken log2 fold change” value was -0.179. In the case of RRIRERPPRLPRPRPRPYVNPRP, the “shrunken log2 fold change” value is reported as 0.0121. With RRIRQRPPRLPRPRPRPGLYPRP the “shrunken log2 fold change” value was 0.224. In the case of RRIRHRPPRLPRPRPRPFEAPRP, the “shrunken log2 fold change” value is reported as -0.214. In the case of RRIRWRPPRLPRPRPRPQAIPRP, the “shrunken log2 fold change” value is reported as 0.204. With RRIRRRPPRLPRPRPRPVIGPRP the “shrunken log2 fold change” value was 0.149. In the case of RRIRYRPPRLPRPRPRPARDPRP, the “shrunken log2 fold change” value is reported as 0.197. With RRIRLRPPRLPRPRPRPQICPRP the “shrunken log2 fold change” value was -0.0895. In the case of RRIRARPPRLPRPRPRPYQFPRP, the “shrunken log2 fold change” value is reported as -0.34. In the case of RRIRDRPPRLPRPRPRPAFDPRP, the “shrunken log2 fold change” value is reported as 0.284. With RRIRCRPPRLPRPRPRPWFWPRP the “shrunken log2 fold change” value was 0.189. In the case of RRIRVRPPRLPRPRPRPHAKPRP, the “shrunken log2 fold change” value is reported as 0.0066. With RRIRQRPPRLPRPRPRPRYNPRP the “shrunken log2 fold change” value was -0.527. In the case of RRIRHRPPRLPRPRPRPTQSPRP, the “shrunken log2 fold change” value is reported as 0.113. RRIRNRPPRLPRPRPRPNSMPRP was tested, and the “shrunken log2 fold change” value was -0.815. For RRIRYRPPRLPRPRPRPTWWPRP, the “shrunken log2 fold change” value was 0.134. With RRIRFRPPRLPRPRPRPWTFPRP the “shrunken log2 fold change” value was -0.797. With RRIRCRPPRLPRPRPRPPNCPRP the “shrunken log2 fold change” value was 0.0348. With RRIRWRPPRLPRPRPRPSNWPRP the “shrunken log2 fold change” value was 0.135. In the case of RRIRYRPPRLPRPRPRPLFFPRP, the “shrunken log2 fold change” value is reported as -0.751. RRIRDRPPRLPRPRPRPKSHPRP was tested, and the “shrunken log2 fold change” value was -0.204. With RRIRKRPPRLPRPRPRPTMAPRP the “shrunken log2 fold change” value was 0.638. With RRIRHRPPRLPRPRPRPPQFPRP the “shrunken log2 fold change” value was 0.0105. RRIRARPPRLPRPRPRPTITPRP was tested, and the “shrunken log2 fold change” value was 0.187. In the case of RRIRLRPPRLPRPRPRPTWAPRP, the “shrunken log2 fold change” value is reported as 0.17. For RRIRMRPPRLPRPRPRPKGTPRP, the “shrunken log2 fold change” value was 1.69. RRIRGRPPRLPRPRPRPSDMPRP was tested, and the “shrunken log2 fold change” value was 0.488. For RRIRHRPPRLPRPRPRPAGEPRP, the “shrunken log2 fold change” value was -0.0717. In the case of RRIRYRPPRLPRPRPRPKAEPRP, the “shrunken log2 fold change” value is reported as 0.0881. RRIRRRPPRLPRPRPRPRESPRP was tested, and the “shrunken log2 fold change” value was 0.59. With RRIRRRPPRLPRPRPRPGLPPRP the “shrunken log2 fold change” value was 0.33. RRIRYRPPRLPRPRPRPSWDPRP was tested, and the “shrunken log2 fold change” value was -0.429. With RRIRHRPPRLPRPRPRPANSPRP the “shrunken log2 fold change” value was -0.271. With RRIRWRPPRLPRPRPRPFNMPRP the “shrunken log2 fold change” value was -0.298. For RRIRDRPPRLPRPRPRPNDDPRP, the “shrunken log2 fold change” value was 0.226. In the case of RRIRHRPPRLPRPRPRPLQAPRP, the “shrunken log2 fold change” value is reported as -0.279. RRIRPRPPRLPRPRPRPNHYPRP was tested, and the “shrunken log2 fold change” value was -0.576. RRIRRRPPRLPRPRPRPARVPRP was tested, and the “shrunken log2 fold change” value was 0.349. RRIRNRPPRLPRPRPRPKRYPRP was tested, and the “shrunken log2 fold change” value was 0.0391. RRIRQRPPRLPRPRPRPCGWPRP was tested, and the “shrunken log2 fold change” value was 0.502. With RRIRIRPPRLPRPRPRPVHCPRP the “shrunken log2 fold change” value was -0.335. In the case of RRIRFRPPRLPRPRPRPTHLPRP, the “shrunken log2 fold change” value is reported as 0.222. In the case of RRIRMRPPRLPRPRPRPELRPRP, the “shrunken log2 fold change” value is reported as 2.02. In the case of RRIRCRPPRLPRPRPRPIWEPRP, the “shrunken log2 fold change” value is reported as 0.0488. With RRIRLRPPRLPRPRPRPWCHPRP the “shrunken log2 fold change” value was -0.441. For RRIRNRPPRLPRPRPRPEMEPRP, the “shrunken log2 fold change” value was -0.0148. For RRIRSRPPRLPRPRPRPAGCPRP, the “shrunken log2 fold change” value was 0.459. RRIRIRPPRLPRPRPRPMGRPRP was tested, and the “shrunken log2 fold change” value was 0.126. In the case of RRIRFRPPRLPRPRPRPKAAPRP, the “shrunken log2 fold change” value is reported as 0.264. For RRIRTRPPRLPRPRPRPHCNPRP, the “shrunken log2 fold change” value was -0.453. In the case of RRIRARPPRLPRPRPRPIHRPRP, the “shrunken log2 fold change” value is reported as -0.26. In the case of RRIRNRPPRLPRPRPRPSTQPRP, the “shrunken log2 fold change” value is reported as -0.502. RRIRNRPPRLPRPRPRPALMPRP was tested, and the “shrunken log2 fold change” value was 0.15. With RRIRWRPPRLPRPRPRPNYVPRP the “shrunken log2 fold change” value was -0.128. RRIRHRPPRLPRPRPRPKCRPRP was tested, and the “shrunken log2 fold change” value was -0.163. With RRIRDRPPRLPRPRPRPLVQPRP the “shrunken log2 fold change” value was 0.709. For RRIRHRPPRLPRPRPRPEPYPRP, the “shrunken log2 fold change” value was 0.0514. RRIRKRPPRLPRPRPRPPGFPRP was tested, and the “shrunken log2 fold change” value was 0.55. RRIRERPPRLPRPRPRPTSFPRP was tested, and the “shrunken log2 fold change” value was 0.0302. In the case of RRIRCRPPRLPRPRPRPHWSPRP, the “shrunken log2 fold change” value is reported as -0.395. In the case of RRIRNRPPRLPRPRPRPRVQPRP, the “shrunken log2 fold change” value is reported as -0.00489. For RRIRLRPPRLPRPRPRPTIHPRP, the “shrunken log2 fold change” value was -0.3. In the case of RRIRKRPPRLPRPRPRPQSSPRP, the “shrunken log2 fold change” value is reported as -0.0228. For RRIRRRPPRLPRPRPRPKPEPRP, the “shrunken log2 fold change” value was 0.489. RRIRPRPPRLPRPRPRPVGPPRP was tested, and the “shrunken log2 fold change” value was 0.427. With RRIRIRPPRLPRPRPRPQLYPRP the “shrunken log2 fold change” value was -0.303. With RRIRFRPPRLPRPRPRPEMDPRP the “shrunken log2 fold change” value was -0.00136.
